Measured values reported in PMC12548473, “Solution structure of the C-terminal domain of the measles virus V protein in its free form and mechanistic analysis of STAT2 targeting” (Journal of Virology, 2025).

How the values were obtained:
[1] = target: STAT2 core (Homo sapiens) (UniProt P52630); conditions: cited from earlier work
STAT2-core = target: T1, STAT2-core (UniProt P52630 133-679); test: ITC; 250 µM MeV-V_(CT221-299) injected (20 x 2.5 µL) into 35 µM STAT2-core; 20°C; 10 mM HEPES pH 7.4, 150 mM NaCl, 1 mM TCEP; 1:1 binding model; three independent experiments; conditions: both partners purified
T1 construct: source: purified
T1 sequence: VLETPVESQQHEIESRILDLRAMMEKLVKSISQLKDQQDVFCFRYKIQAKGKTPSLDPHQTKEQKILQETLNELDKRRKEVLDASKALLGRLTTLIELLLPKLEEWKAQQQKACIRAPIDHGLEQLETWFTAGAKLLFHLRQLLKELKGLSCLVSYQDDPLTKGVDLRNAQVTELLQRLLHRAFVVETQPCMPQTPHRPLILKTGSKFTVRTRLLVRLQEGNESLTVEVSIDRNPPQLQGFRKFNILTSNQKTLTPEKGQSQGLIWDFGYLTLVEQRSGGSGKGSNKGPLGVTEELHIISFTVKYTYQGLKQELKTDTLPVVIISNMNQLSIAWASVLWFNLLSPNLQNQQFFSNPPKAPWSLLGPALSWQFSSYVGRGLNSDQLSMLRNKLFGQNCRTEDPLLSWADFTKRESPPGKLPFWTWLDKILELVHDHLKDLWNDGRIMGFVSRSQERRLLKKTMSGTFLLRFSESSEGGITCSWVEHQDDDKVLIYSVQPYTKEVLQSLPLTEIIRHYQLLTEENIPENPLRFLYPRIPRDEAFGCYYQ

MeV-V (from UniProt P0C774)
Kd [1]: 180 nM

B1: MeV-V_(CT221-299) (measles virus V protein, residues 221-299, containing the C-terminal domain) (domain or fragment)
chain: GPASTSETPIKKGHRREIGLIWNGDRVFIDRWCNPMCSKVTLGTIRARCTCGECPRVCEQCRTDTGVDTRIWYHNLPEIPE
notes: additional Gly and Pro before Ala221, left after HRV-3C protease digestion; 15N- or 13C,15N-labelled for the NMR experiments, unlabelled for ITC; Monomer by SEC; also called MeV-VCT construct; MeV-VCTD; source: E. coli BL21 star (DE3), purified (Glutathione Sepharose 4B, 3C protease elution, HisTrap, HIC, SEC); not shown: GST, N-terminal, cleaved
Kd (STAT2-core): 212 nM | dH (STAT2-core): -12.5 kcal/mol | stoichiometry N (STAT2-core): 1.17
